Laboratory results as given in patent publication US20210230244A1 (NATIONAL INSTITUTE OF IMMUNOLOGY, published 2021).
Bridge positions count the residues as written; N and C are the ends. Ends that are not written are not given here.

Target: T1, Abeta 1-42 peptide
T1 construct: Used at 100 micromolar in PBS pH 7.4 at 37 C, where it aggregates into oligomers and fibrils, so it was not a defined monomer in the assays; also called Abeta42; Abeta 42
Assay: Glu-OC (25 ng-0.1 ng) incubated with 100 micromolar Abeta42; A11 reactivity and AFM

T1 sequence (peptide, as listed by the source): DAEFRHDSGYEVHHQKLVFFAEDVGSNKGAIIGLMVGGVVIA

binding result: binds
B1: undercarboxylated osteocalcin (peptide)
peptide: YLYQWLGAPVPYPDPLEPRREVCELNPDCDELADHIGFQEAYRRFYGPV
modifications: disulfide 23-29
notes: also called Glu-OC; uncarboxylated osteocalcin
